From publication PMC9352551, “Energetic determinants of animal cell polarity regulator Par-3 interaction with the Par complex” (The Journal of Biological Chemistry, 2022)

T1: Par-3 PDZ3 (his-purified, soluble) (Drosophila, UniProt O96782 616-741)
T1 construct: Par-3 (Bazooka), Drosophila, residues 616-741; From pET19; source: E. coli BL21 (DE3), his-purified
T1 sequence (looked up): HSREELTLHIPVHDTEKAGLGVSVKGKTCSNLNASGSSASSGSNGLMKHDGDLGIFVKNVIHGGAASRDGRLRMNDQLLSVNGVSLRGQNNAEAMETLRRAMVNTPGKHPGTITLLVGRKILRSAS

T2: Par-3 PDZ2 (his-purified, soluble) (Drosophila, UniProt O96782 444-533)
T2 construct: Par-3 (Bazooka), Drosophila, residues 444-533; From pET19; also called soluble PDZ2; source: E. coli BL21 (DE3), his-purified
T2 sequence (looked up): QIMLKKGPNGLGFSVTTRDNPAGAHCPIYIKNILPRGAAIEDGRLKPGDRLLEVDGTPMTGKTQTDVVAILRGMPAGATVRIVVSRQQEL

T3: Par complex Par-6ΔPBM (Drosophila, UniProt O97111 1-343; A1Z9X0 1-606)
T3 construct: aPKC, Drosophila, residues 1-606; Construct as in PMID 32084408; also called Par complex lacking the Par-6 PBM; Par-6ΔPBM/aPKC; source: HEK 293F, transfected (pCMV), purified (Ni-NTA or cobalt resin, Source Q anion exchange)
T3 sequence (looked up) 1: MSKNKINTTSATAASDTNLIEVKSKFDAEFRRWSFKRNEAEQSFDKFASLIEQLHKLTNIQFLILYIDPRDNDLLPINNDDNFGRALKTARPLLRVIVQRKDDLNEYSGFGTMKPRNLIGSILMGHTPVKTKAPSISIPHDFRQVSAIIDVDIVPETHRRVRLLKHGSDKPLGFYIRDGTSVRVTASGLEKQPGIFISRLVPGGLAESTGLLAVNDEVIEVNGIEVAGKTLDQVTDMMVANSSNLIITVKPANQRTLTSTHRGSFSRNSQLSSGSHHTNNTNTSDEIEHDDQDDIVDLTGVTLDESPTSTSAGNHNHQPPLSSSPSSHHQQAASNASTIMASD
T3 sequence (looked up) 2: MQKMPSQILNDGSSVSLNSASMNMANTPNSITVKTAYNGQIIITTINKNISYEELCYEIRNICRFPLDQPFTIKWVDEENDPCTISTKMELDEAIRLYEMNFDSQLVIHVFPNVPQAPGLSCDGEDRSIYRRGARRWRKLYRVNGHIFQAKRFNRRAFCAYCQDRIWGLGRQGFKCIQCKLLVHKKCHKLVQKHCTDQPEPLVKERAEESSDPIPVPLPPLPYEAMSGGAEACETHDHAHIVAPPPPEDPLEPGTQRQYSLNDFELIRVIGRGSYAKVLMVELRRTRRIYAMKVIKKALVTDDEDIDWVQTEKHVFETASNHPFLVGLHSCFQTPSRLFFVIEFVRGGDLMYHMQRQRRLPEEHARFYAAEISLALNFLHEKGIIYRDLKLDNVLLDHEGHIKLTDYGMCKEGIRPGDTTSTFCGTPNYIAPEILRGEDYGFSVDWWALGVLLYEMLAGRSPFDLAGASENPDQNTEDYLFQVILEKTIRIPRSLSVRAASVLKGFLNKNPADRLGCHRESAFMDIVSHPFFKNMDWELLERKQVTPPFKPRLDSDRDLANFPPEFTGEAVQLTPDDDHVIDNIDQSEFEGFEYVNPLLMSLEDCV

T4: Par complex (his-Par-6, aPKC) (Drosophila, UniProt O97111 1-351; A1Z9X0 1-606)
T4 construct: Par-6, Drosophila, residues 1-351; atypical protein kinase C (aPKC), Drosophila, residues 1-606; Construct as in PMID 32084408; also called full Par complex; source: HEK 293F, transfected (pCMV), purified (Ni-NTA or cobalt resin, Source Q anion exchange)
T4 sequence (looked up) 1: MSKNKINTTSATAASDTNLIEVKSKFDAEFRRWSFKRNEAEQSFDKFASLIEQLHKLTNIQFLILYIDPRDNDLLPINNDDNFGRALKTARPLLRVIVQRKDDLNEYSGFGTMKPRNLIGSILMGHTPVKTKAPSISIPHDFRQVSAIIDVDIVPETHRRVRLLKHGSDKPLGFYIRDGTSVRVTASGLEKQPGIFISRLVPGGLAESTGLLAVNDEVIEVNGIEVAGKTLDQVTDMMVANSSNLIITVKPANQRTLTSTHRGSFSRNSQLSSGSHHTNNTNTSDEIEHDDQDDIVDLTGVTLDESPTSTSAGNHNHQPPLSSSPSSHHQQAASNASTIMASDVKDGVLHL
T4 sequence (looked up) 2: T3 sequence (looked up) 2

B1: aPKC KD-PBM (domain or fragment, Drosophila, UniProt A1Z9X0 259-606, looked up)
chain: YSLNDFELIRVIGRGSYAKVLMVELRRTRRIYAMKVIKKALVTDDEDIDWVQTEKHVFETASNHPFLVGLHSCFQTPSRLFFVIEFVRGGDLMYHMQRQRRLPEEHARFYAAEISLALNFLHEKGIIYRDLKLDNVLLDHEGHIKLTDYGMCKEGIRPGDTTSTFCGTPNYIAPEILRGEDYGFSVDWWALGVLLYEMLAGRSPFDLAGASENPDQNTEDYLFQVILEKTIRIPRSLSVRAASVLKGFLNKNPADRLGCHRESAFMDIVSHPFFKNMDWELLERKQVTPPFKPRLDSDRDLANFPPEFTGEAVQLTPDDDHVIDNIDQSEFEGFEYVNPLLMSLEDCV
notes: From pBH; also called his aPKC kinase domain-PBM; aPKC kinase domain–PBM; source: E. coli BL21 (DE3), his-purified (Ni-NTA) partially under denaturing conditions (8 M urea)
B2: GST-aPKC PBM (domain or fragment, Drosophila, UniProt A1Z9X0 583-606, looked up)
chain: NIDQSEFEGFEYVNPLLMSLEDCV
notes: From pGEX; construct as in PMID 32084408
B3: MBP-Par-3 PDZ1-APM (domain or fragment, Drosophila, UniProt O96782 309-987, looked up)
chain: DGEMLLIINEYGSPLGLTALPDKEHGGGLLVQHVEPGSRAERGQLRRDDRILEINGIKLIGLTESQVQEQLRRALESSELRVRVLRGDRNRRQQRDSKVADMVEVATVSPTRKPHAAPVGTSLQVANTRKLGRKIQIMLKKGPNGLGFSVTTRDNPAGAHCPIYIKNILPRGAAIEDGRLKPGDRLLEVDGTPMTGKTQTDVVAILRGMPAGATVRIVVSRQQELAEQADQPAEKSAGVAVAPSVAPPAVPAAAAPAPPIPVQKSSSARSLFTHQQQSQLNESQHFIDAGSESAASNDSLPPSSNSWHSREELTLHIPVHDTEKAGLGVSVKGKTCSNLNASGSSASSGSNGLMKHDGDLGIFVKNVIHGGAASRDGRLRMNDQLLSVNGVSLRGQNNAEAMETLRRAMVNTPGKHPGTITLLVGRKILRSASSSDILDHSNSHSHSHSNSSGGSNSNGSGNNNNSSSNASDNSGATVIYLSPEKREQRCNGGGGGGSAGNEMNRWSNPVLDRLTGGICSSNSAQPSSQQSHQQQPHPSQQQQQQRRLPAAPVCSSAALRNESYYMATNDNWSPAQMHLMTAHGNTALLIEDDAEPMSPTLPARPHDGQHCNTSSANPSQNLAVGNQGPPINTVPGTPSTSSNFDATYSSQLSLETNSGVEHFSRDALGRRSISEKHHA
notes: Par-3 (Bazooka), Drosophila, residues 309-987 (PDZ1 to the aPKC phosphorylation motif); From pMAL; construct as in PMID 32084408; not shown: MBP, N-terminal, kept; His tag, C-terminal, kept

Tests used:
Details in all cases: both partners purified
MBP-Par-3 PDZ1-APM [1] = molecular target: B3; experiment: supernatant depletion assay; MBP-Par-3 (C-terminal his-tag, his-purified) on amylose resin (solid phase); soluble protein left in the supernatant quantified on a Coomassie gel; 10 min at 20 °C; 10 mM Hepes pH 7.5, 100 mM NaCl, 1 mM DTT, 200 μM ATP, 5 mM MgCl2, 0.1% Tween-20; 'apparent'
[2] = molecular target: T1, Par-3 PDZ3 (his-purified, soluble); experiment: supernatant depletion assay; GST-fused protein on glutathione agarose resin (solid phase, 'ligand'); soluble protein ('receptor') left in the supernatant at equilibrium quantified on a Coomassie gel; 1 h at 20 °C; 10 mM Hepes pH 7.5, 100 mM NaCl, 1 mM DTT, 200 μM ATP, 5 mM MgCl2, 0.1% Tween-20; single-site equation; 'apparent' for Par-3 variants that could bind more than one Par complex; ATP replaced with ADP in one …
[3] = molecular target: T2, Par-3 PDZ2 (his-purified, soluble); experiment: as above
MBP-Par-3 PDZ1-APM [4] = molecular target: B3; experiment: pull-down; GST-aPKC PBM on glutathione resin with Par-3 PDZ1-APM and the Par complex as soluble proteins; room temperature, 30 to 60 min; 10 mM Hepes pH 7.5, 100 mM NaCl, 1 mM DTT, 200 μM ATP, 5 mM MgCl2, 0.1% Tween-20; Coomassie gel
Par complex Par-6ΔPBM = molecular target: T3, Par complex Par-6ΔPBM; experiment: supernatant depletion assay; MBP-Par-3 (C-terminal his-tag, his-purified) on amylose resin (solid phase); soluble protein left in the supernatant quantified on a Coomassie gel; 10 min at 20 °C; 10 mM Hepes pH 7.5, 100 mM NaCl, 1 mM DTT, 200 μM ATP, 5 mM MgCl2, 0.1% Tween-20; 'apparent'
[5] = molecular target: T4, Par complex (his-Par-6, aPKC); experiment: as above

Binder: B1
binding result (MBP-Par-3 PDZ1-APM [1]): binds

Binder: B2
binding result [2]: binds
binding result [3]: binds
binding result (MBP-Par-3 PDZ1-APM [4]): binds

Binder: B3
binding result (Par complex Par-6ΔPBM): binds
binding result [5]: binds
